Drawing on EP2814500B1, this text covers Kd for one substance.

In the test the target is mouse glycophorin-A (GYPA) on the mouse erythrocyte surface (mouse) (UniProt P14220). Nature of the test: equilibrium binding to mouse erythrocytes, flow cytometry, one-site binding fit.

ERY1-OVA (ovalbumin chemically conjugated with ERY1 peptide through SMCC), sequence (P01012 2-386, form in doubt): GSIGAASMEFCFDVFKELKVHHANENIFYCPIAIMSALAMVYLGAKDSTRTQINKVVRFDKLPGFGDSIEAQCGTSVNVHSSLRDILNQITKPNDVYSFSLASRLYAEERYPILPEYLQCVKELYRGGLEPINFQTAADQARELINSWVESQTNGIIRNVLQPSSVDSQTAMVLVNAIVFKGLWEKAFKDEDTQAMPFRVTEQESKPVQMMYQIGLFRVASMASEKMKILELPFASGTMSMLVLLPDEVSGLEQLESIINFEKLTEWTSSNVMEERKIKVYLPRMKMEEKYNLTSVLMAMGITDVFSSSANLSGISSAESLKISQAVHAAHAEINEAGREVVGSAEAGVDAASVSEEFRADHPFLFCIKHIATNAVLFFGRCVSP

With “ERY1-OVA (ovalbumin chemically conjugated with ERY1 peptide through SMCC) (from UniProt P01012 2-386)”, the Kd (in general, the concentration at which binding is half-saturated) was found to be 6.2 nM.
